Results reported in PMC3315527 (2012).

Tests used:
OEP61 (recombinant) = biological target: T1, OEP61 (recombinant) (Arabidopsis thaliana); test: from ref 7
T1 chain: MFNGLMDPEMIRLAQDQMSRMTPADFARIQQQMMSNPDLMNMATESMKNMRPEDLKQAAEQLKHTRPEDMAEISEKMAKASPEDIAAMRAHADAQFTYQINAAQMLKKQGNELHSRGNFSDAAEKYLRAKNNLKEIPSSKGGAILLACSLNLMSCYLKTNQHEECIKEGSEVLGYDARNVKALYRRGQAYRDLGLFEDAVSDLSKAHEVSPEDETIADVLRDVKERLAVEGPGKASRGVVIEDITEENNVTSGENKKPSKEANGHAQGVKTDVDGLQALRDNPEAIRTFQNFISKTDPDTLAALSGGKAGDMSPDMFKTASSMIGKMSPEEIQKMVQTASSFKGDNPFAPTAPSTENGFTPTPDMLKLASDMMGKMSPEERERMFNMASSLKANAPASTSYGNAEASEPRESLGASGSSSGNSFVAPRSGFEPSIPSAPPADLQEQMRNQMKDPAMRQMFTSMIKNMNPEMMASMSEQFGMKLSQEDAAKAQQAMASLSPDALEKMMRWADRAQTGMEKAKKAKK

[1] = biological target: chaperone receptors within native chloroplast membranes (dynamic TIRE); test: native chloroplast membranes
Toc64 (recombinant) = biological target: T2, Toc64 (recombinant) (Pisum sativum); test: from ref 7
T2 chain: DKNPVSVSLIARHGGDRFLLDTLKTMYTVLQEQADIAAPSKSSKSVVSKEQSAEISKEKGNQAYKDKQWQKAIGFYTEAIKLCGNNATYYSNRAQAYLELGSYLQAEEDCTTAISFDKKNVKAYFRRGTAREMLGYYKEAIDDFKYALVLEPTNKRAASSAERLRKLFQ

B1: Hsp70-1 (At5g02500), full length (natural protein)
chain: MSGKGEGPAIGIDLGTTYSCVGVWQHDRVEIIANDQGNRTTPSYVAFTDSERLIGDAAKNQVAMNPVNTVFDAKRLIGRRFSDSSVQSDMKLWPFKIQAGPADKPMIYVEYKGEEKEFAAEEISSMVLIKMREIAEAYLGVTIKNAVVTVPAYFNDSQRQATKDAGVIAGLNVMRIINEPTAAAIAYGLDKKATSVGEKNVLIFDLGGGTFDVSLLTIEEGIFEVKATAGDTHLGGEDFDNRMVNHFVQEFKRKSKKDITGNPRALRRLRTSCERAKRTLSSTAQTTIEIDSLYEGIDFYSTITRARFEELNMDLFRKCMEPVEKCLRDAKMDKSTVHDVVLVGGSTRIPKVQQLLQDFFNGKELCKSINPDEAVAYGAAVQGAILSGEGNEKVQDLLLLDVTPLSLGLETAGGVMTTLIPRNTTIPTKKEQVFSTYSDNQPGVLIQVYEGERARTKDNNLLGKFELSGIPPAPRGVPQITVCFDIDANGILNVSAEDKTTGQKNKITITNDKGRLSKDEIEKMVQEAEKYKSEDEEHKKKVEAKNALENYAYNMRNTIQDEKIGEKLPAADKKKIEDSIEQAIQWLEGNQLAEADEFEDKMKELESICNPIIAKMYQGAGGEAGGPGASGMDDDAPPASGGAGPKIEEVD
Ka (OEP61 (recombinant)): 1.03e+09 M⁻¹ | Kd [1]: 109 nM

B2: Hsp90-2 (At5g56030), full length (natural protein)
chain: not shown
Ka (Toc64 (recombinant)): 7.6e+08 M⁻¹ | Kd [1]: 114 nM
